The assay concerns the target RVFV glycoprotein Gn head domain (154–469 aa) (Rift Valley fever virus) (UniProt P21401). The assay is described as follows: BLI; […]; 300 s association, 300 s dissociation; […], global 1:1 model; Octet RED96.

A word on the Kd: it is the constant that tells how readily two partners part at equilibrium. Low readings indicate higher affinity, high ones lower affinity. “full-length LRP1 (low-density lipoprotein receptor-related protein 1), native, from porcine lung” registered a dissociation constant (Kd) of 9.2 nM.

These data come from paper PMC12839305.
